The text below walks through data of patent US20140120095A1 (Boehringer Ingelheim, published 2014).

The target of test [1] is T1, mouse DLL4, full length, overexpressed on CHO cells (mouse, UniProt Q9JI71 27-686).
T1 construct: whole, on cells; also called mDLL4; CHO-mDLL4
Briefly: FMAT, hNotch1-Fc on CHO-mDLL4, -HSA.

For test [2], the target named is VEGF (used to stimulate HUVEC cells) (UniProt P15692-4 27-191, limits assumed). The experiment in a line: cell-based or functional assay.
Test [3] addresses T2, human DLL4, full length, overexpressed on cells (human, UniProt Q9NR61 27-685).
T2 construct: CHO cells in FMAT, HEK293 cells in the reporter assay; also called hDLL4; CHO-hDLL4
The experiment in a line: FMAT, hNotch1-Fc on CHO-hDLL4, -HSA.

The target of test [4] is T3, recombinant human VEGF165 (human, UniProt P15692-4 27-191, biotinylated in the competition assays).
T3 construct: Bought protein; also called hVEGF165; rhVEGF165
Briefly: AlphaScreen, hVEGF165/hVEGFR2-Fc competition, +5 uM HSA. The method, then: These 2 competition assays are also performed after preincubation of the VHHs with 5 μM human serum albumin.
(Alpha assays give light when donor and acceptor beads are brought close together.)

Test [5] addresses T1, mouse DLL4, full length, overexpressed …. Briefly: FMAT, hNotch1-Fc on CHO-mDLL4, +25 uM HSA.
The target of test [6] is T3, recombinant human VEGF165. Briefly: AlphaScreen, hVEGF165/hVEGFR1-Fc competition, -HSA.
For test [7], the target named is T2, human DLL4, full length, overexpressed …. The experiment in a line: cell-based or functional assay.
Test [8] has the same target. The experiment in a line: FMAT, hNotch1-Fc on CHO-hDLL4, +25 uM HSA.
In test [9] the target is T3, recombinant human VEGF165. Briefly: AlphaScreen, hVEGF165/hVEGFR2-Fc competition, -HSA.
Test [10] concerns the target T4, human DLL4 expressed on cells (CHO-hDLL4; HEK293-hDLL4) (human, UniProt Q9NR61 27-685).
T4 construct: full length human DLL4 overexpressed on CHO cells (FMAT, FACS) or HEK293 cells (reporter assay)
The experiment in a line: competition FMAT, labelled hNotch1-Fc on CHO-hDLL4 cells.

In test [11] the target is T4, human DLL4 expressed on cells …. The experiment in a line: cell-based or functional assay.
The target of test [12] is T5, recombinant human DLL4 (C-terminally His-tagged extracellular domain, R&D Systems) (human, UniProt Q9NR61 25-522, biotinylated in the competition ELISA).
T5 construct: also called rhDLL4; hDLL4
Briefly: SPR (Biacore), recombinant human DLL4. As for the experimental part: Kinetic analysis to determine the affinity of the DII4-VHH interaction is performed by Surface Plasmon Resonance (SPR) on a Biacore T100 instrument. […] Purified VHHs or Fab fragment are injected for 2 minutes at different concentrations (between 10 and 300 nM) and allowed to dissociate for 20 min at a flow rate of 45 μl/min. Between sample injections, the surfaces are regenerated with 10 mM glycine pH1.5 and 100 mM HCl. HBS-N (Hepes buffer pH7.4) is used as running buffer. If possible, data are evaluated by fitting a 1:1 interaction model (Langmuir binding) onto the binding curves. The affinity constant KD is calculated from resulting association and dissociation rate constants (kₐ) and […].
(In general: SPR reads the build-up and loss of mass on a sensor chip optically.)

The target of test [13] is T3, recombinant human VEGF165. Briefly: ProteOn off-rate assay, periplasmic extract on coated hVEGF165. The method, then: One additional variant is constructed in which the potential oxidation site at position M30 (CDR1 region, see FIG. 38 indicated as bold italic residue) is removed by introduction of a M30I mutation. […] Off-rates are calculated and compared to the off-rates of the parental VEGFBII5B05.

As a reminder, the IC50 is the concentration needed to halve the response being measured. Usually Kd stands for the concentration at which binding is half-saturated. Usually koff stands for the rate constant with which the complex falls apart. The term kon denotes a measure of how fast the partners come together.

Numbering of substitutions follows the chain as printed.

T3 sequence (P15692 other isoform, or with tags, fused parts or gaps): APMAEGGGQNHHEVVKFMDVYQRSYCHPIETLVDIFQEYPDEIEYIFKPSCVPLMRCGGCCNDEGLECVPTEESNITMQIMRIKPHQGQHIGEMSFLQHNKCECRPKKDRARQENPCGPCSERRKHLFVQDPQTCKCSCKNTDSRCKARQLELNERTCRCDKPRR
Sequence of VEGF (used to stimulate HUVEC cells) (P15692 other isoform, or with tags, fused parts or gaps limits assumed): as the sequence (P15692 other isoform, or with tags, fused parts or gaps) above
T1 sequence (Q9JI71 27-686): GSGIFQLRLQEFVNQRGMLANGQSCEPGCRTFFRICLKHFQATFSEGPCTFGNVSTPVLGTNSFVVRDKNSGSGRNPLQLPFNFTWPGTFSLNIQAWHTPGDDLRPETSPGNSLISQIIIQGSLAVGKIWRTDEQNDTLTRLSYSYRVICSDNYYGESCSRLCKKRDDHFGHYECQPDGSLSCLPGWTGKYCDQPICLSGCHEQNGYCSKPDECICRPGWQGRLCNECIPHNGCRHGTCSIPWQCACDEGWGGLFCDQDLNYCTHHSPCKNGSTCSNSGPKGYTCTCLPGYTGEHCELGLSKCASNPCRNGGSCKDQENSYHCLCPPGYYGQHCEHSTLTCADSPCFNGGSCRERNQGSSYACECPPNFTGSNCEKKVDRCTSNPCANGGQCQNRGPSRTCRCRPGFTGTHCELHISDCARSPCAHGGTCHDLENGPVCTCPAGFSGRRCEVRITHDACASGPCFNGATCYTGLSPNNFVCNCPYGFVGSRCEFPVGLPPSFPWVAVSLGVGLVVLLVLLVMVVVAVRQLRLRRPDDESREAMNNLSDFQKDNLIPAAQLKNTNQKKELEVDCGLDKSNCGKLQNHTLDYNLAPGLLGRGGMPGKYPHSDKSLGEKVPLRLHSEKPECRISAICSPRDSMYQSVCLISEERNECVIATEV

B1: VEGFDLLBII015 (bispecific antibody)
chain: EVQLVESGGGLVQTGDSLRLSCEVSGRTFSSYSMGWFRQAQGKEREFVVAISKGGYKYDSVSLEGRFTISKDNAKNTVYLQINSLKPEDTAVYYCASSRAYGSSRLRLADTYEYWGQGTQVTVSSGGGGSGGGGSGGGGCGGGGSGGGGSGGGGSGGGGSEVQLVESGGGLVQPGGSLRLSCVASGIRFMSMAWYRQAPGKHRELVARISSGGTTAYVDSVKGRFTISRDNSKNTVYLQMNSLKAEDTAVYYCNTFSSRPNPWGAGTQVTVSSGGGGSGGGGSGGGGSGGGGSGGGGSGGGGSGGGGSEVQLVESGGGLVQAGGSLRLSCAASGRTFSSYAMAWYRQAPGKEREYVAAIRWSGGTAYYADSVQGRFTISRDNAKNTVYLQMNSLKPEDTAVYYCANRAPDTRLAPYEYDHWGQGTQVTVSS
modifications: PEGylated at the Cys at position 15 of the 35 Gly-Ser linker
notes: VEGFBII23B04 - 35GS(Cys15) - VEGFBII5B05 - 35GS - DLLBII129B05
In the case of B1, the “% inh” value in [1] was 100%; in [3], 100%; in test [4], 100%; in test [5] it was 100%; in [6], 96%; in test [8], 100%. For the same molecule, the “% inh” value in test [9] amounted to 100%. The 50% inhibitory concentration (IC50) in test [1] turned out to be 12.2 nM; in [3], 9.5 nM; in test [4] it was 0.015 nM; in test [5] it was 11.2 nM; in [6], 0.04 nM; in [8], 10 nM. The IC50 in [9] came out at 0.016 nM. In addition, the “% inhibition, VEGF HUVEC proliferation assay, -HSA” value (shortened to “% inhibition”) in test [2] was 109%. Moreover, the “IC50, VEGF HUVEC proliferation assay, -HSA” value (from here on “IC50 … -HSA”) in test [2] was found to be 0.49 nM. In addition, in test [7], the “IC50, DLL4 mediated reporter assay, +HSA” value is 134 nM.

B2: DLLBII017 (VHH, not shown: small tags and cut ends)
VHH: EVQLVESGGGLVQPGGSLRLSCAASGRTFSSYAMAWYRQAPGKEREYVAAIRWSGGTAYYADSVQGRFTISRDNAKNTVYLQMNSLRPEDTAVYYCANRAPDTRLAPYEYDHWGQGTLVTVSS
B2: in test [10], the IC50 came to 12.1 nM. Besides, the “IC50, DLL4-mediated reporter assay (hDLL4)” value in [11] stood at 126 nM. Further, in [12], the Kd came to 0.2 nM, the koff amounted to 8e-05 s⁻¹ and the kon was determined as 370000 M⁻¹ s⁻¹.

B3: VEGFDLLBII013 (bispecific antibody)
chain: EVQLVESGGGLVQTGDSLRLSCEVSGRTFSSYSMGWFRQAQGKEREFVVAISKGGYKYDSVSLEGRFTISKDNAKNTVYLQINSLKPEDTAVYYCASSRAYGSSRLRLADTYEYWGQGTQVTVSSGGGGSGGGGSGGGGCGGGGSGGGGSGGGGSGGGGSEVQLVESGGGLVQAGGSLRLSCAASGRTFSSYAMAWYRQAPGKEREYVAAIRWSGGTAYYADSVQGRFTISRDNAKNTVYLQMNSLKPEDTAVYYCANRAPDTRLAPYEYDHWGQGTQVTVSS
modifications: PEGylated at the Cys at position 15 of the 35 Gly-Ser linker
notes: VEGFBII23B04 - 35GS(Cys15) - DLLBII129B05
For the molecule B3, the “% inh” value was 100% in test [1]; 100% in test [3]; 100% in test [4]; 100% in [5]; 62% in test [6]; 100% in [8]. Moreover, in test [9], the “% inh” value came out at 100%. Also, the IC50 in test [1] worked out at 19.3 nM; in test [3], 12.2 nM; in test [4] it was 0.17 nM; in [5], 23.8 nM; in [6], 0.24 nM; in test [8], 12.4 nM. In addition, in test [9], the IC50 came to 0.18 nM. For the same molecule, the “% inhibition” value in [2] worked out at 92%. For the same molecule, in [2], the “IC50 … -HSA” value turned out to be 0.73 nM. The “IC50, DLL4 mediated reporter assay, +HSA” value in test [7] came out at 98.5 nM.

B4: VEGFDLLBII014 (bispecific antibody)
chain: EVQLVESGGGLVQTGDSLRLSCEVSGRTFSSYSMGWFRQAQGKEREFVVAISKGGYKYDSVSLEGRFTISKDNAKNTVYLQINSLKPEDTAVYYCASSRAYGSSRLRLADTYEYWGQGTQVTVSSGGGGSGGGSEVQLVESGGGLVQPGGSLRLSCVASGIRFMSMAWYRQAPGKHRELVARISSGGTTAYVDSVKGRFTISRDNSKNTVYLQMNSLKAEDTAVYYCNTFSSRPNPWGAGTQVTVSSGGGGSGGGGSGGGGCGGGGSGGGGSGGGGSGGGGSEVQLVESGGGLVQAGGSLRLSCAASGRTFSSYAMAWYRQAPGKEREYVAAIRWSGGTAYYADSVQGRFTISRDNAKNTVYLQMNSLKPEDTAVYYCANRAPDTRLAPYEYDHWGQGTQVTVSS
modifications: PEGylated at the Cys at position 15 of the 35 Gly-Ser linker
notes: VEGFBII23B04 - 9GS - VEGFBII5B05 - 35GS(Cys15) - DLLBII129B05
Take B4: the “% inh” value in test [1] worked out at 100%; in test [3] it was 100%; in [4] it was 100%; in test [5], 100%; in test [6] it was 94%; in [8] it was 100%. Besides, the “% inh” value in test [9] came out at 100%. The IC50 in test [1] was 15.4 nM; in test [3], 9.9 nM; in [4], 0.024 nM; in test [5], 15.4 nM; in test [6], 0.08 nM; in test [8], 12.3 nM. The IC50 in [9] worked out at 0.026 nM. Besides, the “% inhibition” value in [2] was 98%. The “IC50 … -HSA” value in test [2] was 0.49 nM. In addition, in test [7], the “IC50, DLL4 mediated reporter assay, +HSA” value was found to be 122 nM.

B5: VEGFBII119G11 (VHH)
VHH: EVQLVESGGGLVQPGGSLRLSCAASGIRFMSMAWYRQAPGKQRELVARISSGGTTAYADSVKGRFTISRDNSKNTVYLQMNSLRAEDTAVYYCNTFSSRPNPWGQGTLVTVSS
notes: Humanization variant of VEGFBII5B05; tested as periplasmic extract
Regarding B5, in test [13], the “binding level (RU)” value was determined as 234 RU and the koff is 0.0775 s⁻¹.

B6: VEGFBII120E10 (VHH)
VHH: B5 VHH with A23V, M30I, Q42H, A58V, R84K, Q105A, L108Q
notes: M30I variant of VEGFBII5B05; tested as periplasmic extract
Take B6: in test [13], the “binding level (RU)” value amounted to 257 RU and the koff stood at 0.0468 s⁻¹.
